Data as given in PMC8347774, “Construction of Fluorescent Immunosensor Quenchbody to Detect His-Tagged Recombinant Proteins Produced in Bioprocess” (Sensors (Basel, Switzerland), 2021).
Positions count from the first letter of the chain named. Where two headings read alike, the source gives them in different places. Values belong to the binder of their own block, whether it stands above or below them. The star is where a group is joined. Biotin = O=C1N[C@H]2[C@H](CS[C@H]2CCCCC(=O)*)N1

Key:
[1] = target: T1, biotinylated His6 peptide (bio-EGGGSHHHHHH-COOH) (synthetic peptide, SMILES …); test: BLI; biotinylated His6 peptide (100 nM) loaded on streptavidin biosensors; unlabeled protein or Q-body in two-fold dilutions in Kinetic buffer (phosphate, 150 mM NaCl, 0.002% Tween20, 0.1% BSA, pH 7.4); global fit, 1:1 model; Octet K2
T1 construct: spacer EGGGS and His6; Held on streptavidin biosensors by its biotin; source: synthetic peptide (PSSM-8 peptide synthesizer)
T1 chain: Biotin-EGGGSHHHHHH-OH

[2] = target: anti-SARS-CoV-2 VHH nanobody tagged with a hinge, 3xFLAG and C-terminal His tags; test: other fluorescence titration
[3] = target: T2, His6 peptide (antigen of the fluorescence assays) (synthetic peptide); test: other fluorescence titration; Q-body de-quenching in solution with His6 peptide at varied concentrations, PBST, plate reader; EC50 from a four-parameter logistic fit; conditions: both partners purified
T2 construct: His6; The materials name only the biotinylated His6 peptide as synthesised; it may be the same peptide as m17
T2 chain: HHHHHH

Kd [1]: 2.88 nM | koff [1]: 0.000835 s⁻¹ | kon [1]: 290000 M⁻¹ s⁻¹
B1: anti-His scFv 3D5 WW variant (scFv, V domains shown)
VH: QVQLQQSGPEDVKPGASVKISCKASGYTFTDWWMNWVKQSPGKGLEWIGDINPNNGGTSYNQKFKGRATLTVDKSSSTAYMELRSLTSEDSSVYYCESQSGAYWGQGTTVTVSA
VL: DILMTQTPSSLPVSLGDQASISCRSSQSIVHSNGNTYLEWYLQKPGQSPKLLIYKVSNRFSGVPDRFSGSGSGTDFTLKISRVEAEDLGVYYCFQGSHVPFTFGSGTKLEIK

EC50 [2]: 11100 nM | Kd ([1]; both partners purified): 1.31 nM | koff ([1]; both partners purified): 0.000512 s⁻¹ | kon ([1]; both partners purified): 392000 M⁻¹ s⁻¹ | EC50 [3]: 54700 ± 9500 nM
B2: 5-TAMRA C6 maleimide double-labeled YW Fab 3D5 Q-body (Fab, V domains shown)
VH: B1 VH with W32Y
VL: B1 VL
notes: VH of antibody 3D5, as the VH of m7 with the stated change; numbers count on: Kabat numbering of the heavy chain; CH1 of the vector pUQ2, as in m7; VL of antibody 3D5, as the light chain of m7; CL of the vector pUQ2, as the light chain of m7; m9 labelled with two dyes; also called YW TAMRA; source: E. coli SHuffle T7 Express with pGro7, purified (Talon IMAC), labelled, purified (anti-FLAG M2 …)

EC50 [2]: 3000 nM | EC50 [3]: 6100 ± 1400 nM
B3: ATTO520-C2 maleimide double-labeled YW Fab 3D5 Q-body (Fab, V domains shown)
VH: B1 VH with W32Y
VL: B1 VL
notes: VH of antibody 3D5, as the VH of m7 with the stated change; numbers count on: Kabat numbering of the heavy chain; CH1 of the vector pUQ2, as in m7; VL of antibody 3D5, as the light chain of m7; CL of the vector pUQ2, as the light chain of m7; m9 labelled with two ATTO520 dyes; also called YW ATTO520; YW-ATTO520; source: E. coli SHuffle T7 Express with pGro7, purified (Talon IMAC), labelled, …

Kd ([1]; both partners purified): 26.8 nM | koff ([1]; both partners purified): 0.00303 s⁻¹ | kon ([1]; both partners purified): 113000 M⁻¹ s⁻¹
B4: 5-TAMRA C6 maleimide-labeled wild-type scFv 3D5 Q-body (scFv, V domains shown)
VH: B1 VH with W32Y, W33Y
VL: B1 VL
notes: VH of antibody 3D5, as in m1; linker between VH and VL, as in m1; VL of antibody 3D5, as in m1; m1 labelled with one dye; also called wild-type scFv Q-body; source: E. coli SHuffle T7 Express with pGro7, purified (Talon IMAC), labelled, purified (anti-FLAG M2 beads, G-25); not shown: Cys-tag, N-terminal, kept; His6, C-terminal, kept; FLAG, C-terminal, kept

Kd ([1]; both partners purified): 3.62 nM | koff ([1]; both partners purified): 9.93e-05 s⁻¹ | kon ([1]; both partners purified): 27400 M⁻¹ s⁻¹
B5: anti-His Fab 3D5 (wild-type) (Fab, V domains shown)
VH: B1 VH with W32Y, W33Y
VL: B1 VL
notes: VH of antibody 3D5; numbers count on: Kabat numbering of the heavy chain; CH1 of the vector pUQ2 (Fd = VH-CH1); VL of antibody 3D5; CL of the vector pUQ2 (Lc = VL-CL); Linker-less pUQ2 (3D5): the (GGGS)4 linker between Cys-tag and VH was removed; His6 is followed by myc on the heavy chain; also called wild-type Fab; source: E. coli SHuffle T7 Express with pGro7, purified (Talon IMAC); not shown: …

Kd ([1]; both partners purified): 3.19 nM | koff ([1]; both partners purified): 0.000672 s⁻¹ | kon ([1]; both partners purified): 210000 M⁻¹ s⁻¹ | EC50 [3]: 132000 ± 34000 nM
B6: 5-TAMRA C6 maleimide double-labeled wild-type Fab 3D5 Q-body (Fab, V domains shown)
VH: B1 VH with W32Y, W33Y
VL: B1 VL
notes: VH of antibody 3D5, as in m7; CH1 of the vector pUQ2, as in m7; VL of antibody 3D5, as the light chain of m7; CL of the vector pUQ2, as the light chain of m7; m7 labelled with two dyes; also called Wild-type TAMRA; source: E. coli SHuffle T7 Express with pGro7, purified (Talon IMAC), labelled, purified (anti-FLAG M2 beads, G-25); not shown: Cys-tag, N-terminal, kept; His6, C-terminal, kept; myc, …

Kd [1]: 0.17 nM | koff [1]: 2.27e-05 s⁻¹ | kon [1]: 132000 M⁻¹ s⁻¹
B7: anti-His Fab 3D5 WW variant (Fab, V domains shown)
VH: B1 VH
VL: B1 VL

EC50 [3]: 13800 ± 5100 nM
B8: ATTO520-C2 maleimide double-labeled wild-type Fab 3D5 Q-body (Fab, V domains shown)
VH: B1 VH with W32Y, W33Y
VL: B1 VL
notes: VH of antibody 3D5, as in m7; CH1 of the vector pUQ2, as in m7; VL of antibody 3D5, as the light chain of m7; CL of the vector pUQ2, as the light chain of m7; m7 labelled with two ATTO520 dyes; also called Wild-type ATTO520; source: E. coli SHuffle T7 Express with pGro7, purified (Talon IMAC), labelled, purified (anti-FLAG M2 beads, G-25); not shown: Cys-tag, N-terminal, kept; His6, C-terminal, …

Kd ([1]; both partners purified): 5.03 nM | koff ([1]; both partners purified): 0.000425 s⁻¹ | kon ([1]; both partners purified): 84500 M⁻¹ s⁻¹
B9: anti-His scFv 3D5 (wild-type) (scFv, V domains shown)
VH: B1 VH with W32Y, W33Y
VL: B1 VL
notes: VH of antibody 3D5 (anti-C-terminal His tag); numbers count on: Kabat numbering of the heavy chain; linker between VH and VL of the VH-VL type scFv (synthesised gene in pEX-K4J2-1KTR); VL of antibody 3D5; VH-VL order, vector pSQ (3D5); also called wild-type scFv; source: E. coli SHuffle T7 Express with pGro7, purified (Talon IMAC); not shown: Cys-tag, N-terminal, kept; His6, C-terminal, kept; …

EC50 [2]: 10700 nM | EC50 [3]: 8800 ± 1300 nM
B10: ATTO520-C2 maleimide double-labeled WW Fab 3D5 Q-body (Fab, V domains shown)
VH: B1 VH
VL: B1 VL
notes: VH of antibody 3D5, as the VH of m7 with the stated changes; numbers count on: Kabat numbering of the heavy chain; CH1 of the vector pUQ2, as in m7; VL of antibody 3D5, as the light chain of m7; CL of the vector pUQ2, as the light chain of m7; m8 labelled with two ATTO520 dyes; also called WW ATTO520; WW-ATTO520; source: E. coli SHuffle T7 Express with pGro7, purified (Talon IMAC), labelled, …

EC50 [2]: 11500 nM | Kd [1]: 1.72 nM | koff [1]: 0.000455 s⁻¹ | kon [1]: 264000 M⁻¹ s⁻¹ | Kd ([1]; record 2): 3.19 nM | EC50 [3]: 89500 ± 25400 nM
B11: 5-TAMRA C6 maleimide double-labeled WW Fab 3D5 Q-body (Fab, V domains shown)
VH: B1 VH
VL: B1 VL
notes: VH of antibody 3D5, as the VH of m7 with the stated changes; numbers count on: Kabat numbering of the heavy chain; CH1 of the vector pUQ2, as in m7; VL of antibody 3D5, as the light chain of m7; CL of the vector pUQ2, as the light chain of m7; m8 labelled with two dyes; also called WW TAMRA; source: E. coli SHuffle T7 Express with pGro7, purified (Talon IMAC), labelled, purified (anti-FLAG M2 …)

Kd ([1]; both partners purified): 0.76 nM | koff ([1]; both partners purified): 0.000105 s⁻¹ | kon ([1]; both partners purified): 139000 M⁻¹ s⁻¹
B12: anti-His Fab 3D5 YW variant (Fab, V domains shown)
VH: B1 VH with W32Y
VL: B1 VL
notes: VH of antibody 3D5, as the VH of m7 with the stated change; numbers count on: Kabat numbering of the heavy chain; CH1 of the vector pUQ2, as in m7; VL of antibody 3D5, as the light chain of m7; CL of the vector pUQ2, as the light chain of m7; YW read as Tyr kept at 32H and Trp at 33H; source: E. coli SHuffle T7 Express with pGro7, purified (Talon IMAC); not shown: Cys-tag, N-terminal, kept; His6, …
